Key:
[1] = target: Ubiquitin carboxy-terminal hydrolase 10 (Homo sapiens (Human)) (UniProt Q14694)
[2] = target: FAP (Homo sapiens (Human)) (UniProt Q12884)
[3] = target: T1, DPP3 (Homo sapiens (Human)) (UniProt Q9NY33)
T1 sequence: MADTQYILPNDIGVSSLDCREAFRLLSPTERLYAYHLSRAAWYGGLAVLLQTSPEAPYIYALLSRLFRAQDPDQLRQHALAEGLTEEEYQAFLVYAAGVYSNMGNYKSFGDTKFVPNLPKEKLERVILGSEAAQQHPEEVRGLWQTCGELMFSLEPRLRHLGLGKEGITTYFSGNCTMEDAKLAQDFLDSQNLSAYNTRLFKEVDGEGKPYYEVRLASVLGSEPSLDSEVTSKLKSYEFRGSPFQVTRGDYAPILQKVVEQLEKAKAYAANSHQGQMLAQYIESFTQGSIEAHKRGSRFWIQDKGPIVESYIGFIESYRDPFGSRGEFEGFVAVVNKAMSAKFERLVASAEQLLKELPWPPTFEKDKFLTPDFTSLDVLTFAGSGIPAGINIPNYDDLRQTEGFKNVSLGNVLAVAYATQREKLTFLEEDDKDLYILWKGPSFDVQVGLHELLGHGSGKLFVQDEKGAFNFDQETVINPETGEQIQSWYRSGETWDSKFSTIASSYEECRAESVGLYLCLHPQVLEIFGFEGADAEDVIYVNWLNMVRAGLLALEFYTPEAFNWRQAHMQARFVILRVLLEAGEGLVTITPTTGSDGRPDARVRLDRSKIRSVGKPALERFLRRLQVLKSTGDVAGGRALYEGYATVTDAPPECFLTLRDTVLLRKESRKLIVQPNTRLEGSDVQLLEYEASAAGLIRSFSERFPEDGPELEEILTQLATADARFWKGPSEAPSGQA

[4] = target: Ubiquitin carboxy-terminal hydrolase 5 (Homo sapiens (Human)) (UniProt P45974)
[5] = target: T2, Renin (Homo sapiens (Human)) (UniProt P00797)
T2 sequence: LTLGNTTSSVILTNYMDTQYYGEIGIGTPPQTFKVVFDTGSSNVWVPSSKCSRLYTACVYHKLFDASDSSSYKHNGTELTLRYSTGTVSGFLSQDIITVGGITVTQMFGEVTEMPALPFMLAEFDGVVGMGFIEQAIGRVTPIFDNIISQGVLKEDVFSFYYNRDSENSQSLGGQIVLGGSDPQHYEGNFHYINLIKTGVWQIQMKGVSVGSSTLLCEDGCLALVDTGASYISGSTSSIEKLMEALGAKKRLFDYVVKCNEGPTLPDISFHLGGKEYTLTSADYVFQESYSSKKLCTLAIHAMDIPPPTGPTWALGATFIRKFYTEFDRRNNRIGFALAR

[6] = target: Matrix metalloprotease 2 (Homo sapiens (Human)) (UniProt P08253)
[7] = target: Ubiquitin carboxy-terminal hydrolase 7 (Homo sapiens (Human)) (UniProt Q93009)
[8] = target: Cathepsin B (Homo sapiens (Human)) (UniProt P07858)
[9] = target: Caspase-9 (Homo sapiens (Human)) (UniProt P55211)
[10] = target: DPP8 (Homo sapiens (Human)) (UniProt Q6V1X1)
[11] = target: Cathepsin V (Homo sapiens (Human)) (UniProt O60911)
[12] = target: Matrix metalloprotease1 (Homo sapiens (Human)) (UniProt P03956)
[13] = target: T3, Caspase-7 (Homo sapiens (Human)) (UniProt P55210)
T3 sequence: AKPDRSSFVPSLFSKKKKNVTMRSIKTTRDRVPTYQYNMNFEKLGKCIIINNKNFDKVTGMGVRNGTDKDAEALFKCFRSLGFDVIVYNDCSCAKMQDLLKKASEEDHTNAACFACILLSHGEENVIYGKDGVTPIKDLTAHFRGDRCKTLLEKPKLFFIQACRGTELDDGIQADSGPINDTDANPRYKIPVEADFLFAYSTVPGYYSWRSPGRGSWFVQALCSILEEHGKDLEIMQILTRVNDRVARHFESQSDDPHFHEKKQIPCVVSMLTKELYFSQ

[14] = target: T4, Recombinant human FAP (R&D systems, #3715-SE) (human)
T4 sequence: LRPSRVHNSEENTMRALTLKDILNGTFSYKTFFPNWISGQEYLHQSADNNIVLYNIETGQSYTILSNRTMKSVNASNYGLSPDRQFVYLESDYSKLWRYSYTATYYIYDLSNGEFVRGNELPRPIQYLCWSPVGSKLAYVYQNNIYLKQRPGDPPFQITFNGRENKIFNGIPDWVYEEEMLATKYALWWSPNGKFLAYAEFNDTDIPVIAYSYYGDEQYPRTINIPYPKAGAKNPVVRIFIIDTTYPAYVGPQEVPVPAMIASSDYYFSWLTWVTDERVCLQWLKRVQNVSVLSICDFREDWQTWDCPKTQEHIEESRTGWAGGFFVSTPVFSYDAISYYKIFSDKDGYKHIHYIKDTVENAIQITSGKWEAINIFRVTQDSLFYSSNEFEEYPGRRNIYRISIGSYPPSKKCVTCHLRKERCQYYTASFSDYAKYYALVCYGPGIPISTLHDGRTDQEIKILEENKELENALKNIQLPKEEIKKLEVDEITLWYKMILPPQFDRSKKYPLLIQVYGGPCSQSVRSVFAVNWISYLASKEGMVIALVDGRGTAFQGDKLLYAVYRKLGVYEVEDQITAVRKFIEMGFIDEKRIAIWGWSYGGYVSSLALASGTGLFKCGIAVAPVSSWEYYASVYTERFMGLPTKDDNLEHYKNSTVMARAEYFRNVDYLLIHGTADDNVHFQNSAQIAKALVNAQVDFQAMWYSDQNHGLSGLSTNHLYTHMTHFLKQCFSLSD

Matrix metalloprotease 2 (Homo sapiens (Human)), sequence (P08253 110-660): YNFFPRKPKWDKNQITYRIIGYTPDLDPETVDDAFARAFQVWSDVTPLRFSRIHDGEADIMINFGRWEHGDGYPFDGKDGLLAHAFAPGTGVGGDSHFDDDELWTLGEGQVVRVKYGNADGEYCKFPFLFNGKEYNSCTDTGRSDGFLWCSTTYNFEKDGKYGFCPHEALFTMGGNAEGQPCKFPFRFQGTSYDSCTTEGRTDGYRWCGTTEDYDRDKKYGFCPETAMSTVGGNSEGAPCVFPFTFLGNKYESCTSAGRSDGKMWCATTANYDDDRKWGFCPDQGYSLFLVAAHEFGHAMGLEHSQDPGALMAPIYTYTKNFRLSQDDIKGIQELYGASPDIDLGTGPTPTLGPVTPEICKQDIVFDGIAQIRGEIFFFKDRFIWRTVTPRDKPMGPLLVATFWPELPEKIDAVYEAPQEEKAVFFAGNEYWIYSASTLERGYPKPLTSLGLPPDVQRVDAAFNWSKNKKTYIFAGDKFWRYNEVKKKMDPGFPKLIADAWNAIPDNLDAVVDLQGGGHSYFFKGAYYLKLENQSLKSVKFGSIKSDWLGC
Ubiquitin carboxy-terminal hydrolase 10 (Homo sapiens (Human)), sequence (Q14694 whole entry): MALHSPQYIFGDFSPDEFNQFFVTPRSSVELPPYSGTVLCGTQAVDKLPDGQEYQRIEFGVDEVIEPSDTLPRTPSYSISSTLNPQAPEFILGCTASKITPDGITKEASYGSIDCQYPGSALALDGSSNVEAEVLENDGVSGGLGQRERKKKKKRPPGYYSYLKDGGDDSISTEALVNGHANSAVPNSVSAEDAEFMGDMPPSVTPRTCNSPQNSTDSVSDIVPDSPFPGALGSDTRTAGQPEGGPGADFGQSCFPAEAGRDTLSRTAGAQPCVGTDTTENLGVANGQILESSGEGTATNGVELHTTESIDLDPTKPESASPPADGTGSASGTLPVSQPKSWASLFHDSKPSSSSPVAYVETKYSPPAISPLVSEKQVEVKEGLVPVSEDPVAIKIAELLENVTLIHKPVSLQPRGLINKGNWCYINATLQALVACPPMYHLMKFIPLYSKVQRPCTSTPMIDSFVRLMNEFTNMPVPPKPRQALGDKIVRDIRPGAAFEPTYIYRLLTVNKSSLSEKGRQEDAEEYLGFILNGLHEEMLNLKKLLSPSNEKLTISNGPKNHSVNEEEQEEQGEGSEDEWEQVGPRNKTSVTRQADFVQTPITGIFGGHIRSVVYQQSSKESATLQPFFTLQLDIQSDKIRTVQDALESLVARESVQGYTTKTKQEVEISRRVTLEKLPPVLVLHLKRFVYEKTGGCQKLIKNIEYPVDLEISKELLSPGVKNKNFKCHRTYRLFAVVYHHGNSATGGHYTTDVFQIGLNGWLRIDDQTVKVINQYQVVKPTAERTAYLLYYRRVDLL
Caspase-9 (Homo sapiens (Human)), sequence (P55211 whole entry): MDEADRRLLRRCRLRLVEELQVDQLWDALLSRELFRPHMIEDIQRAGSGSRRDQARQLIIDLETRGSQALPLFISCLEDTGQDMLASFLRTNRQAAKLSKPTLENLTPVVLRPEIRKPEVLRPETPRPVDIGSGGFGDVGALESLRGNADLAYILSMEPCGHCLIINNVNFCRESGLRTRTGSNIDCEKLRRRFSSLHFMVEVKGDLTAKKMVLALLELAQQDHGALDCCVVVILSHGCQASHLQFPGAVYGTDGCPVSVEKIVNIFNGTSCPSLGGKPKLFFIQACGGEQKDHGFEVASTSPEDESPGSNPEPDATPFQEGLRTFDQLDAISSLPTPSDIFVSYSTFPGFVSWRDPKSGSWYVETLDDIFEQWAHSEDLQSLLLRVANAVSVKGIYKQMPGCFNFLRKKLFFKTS
Matrix metalloprotease1 (Homo sapiens (Human)), sequence (P03956 100-469): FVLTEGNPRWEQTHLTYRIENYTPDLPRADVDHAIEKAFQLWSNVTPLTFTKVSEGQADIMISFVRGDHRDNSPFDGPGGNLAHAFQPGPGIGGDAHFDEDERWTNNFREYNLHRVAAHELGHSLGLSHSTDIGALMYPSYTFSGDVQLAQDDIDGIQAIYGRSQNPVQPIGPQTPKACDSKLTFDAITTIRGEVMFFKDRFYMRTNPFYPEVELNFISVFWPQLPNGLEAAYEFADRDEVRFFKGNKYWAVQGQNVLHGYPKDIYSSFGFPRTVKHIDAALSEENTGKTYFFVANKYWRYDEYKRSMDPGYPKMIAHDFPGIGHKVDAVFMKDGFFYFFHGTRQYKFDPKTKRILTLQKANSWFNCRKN
Ubiquitin carboxy-terminal hydrolase 5 (Homo sapiens (Human)), sequence (P45974 whole entry): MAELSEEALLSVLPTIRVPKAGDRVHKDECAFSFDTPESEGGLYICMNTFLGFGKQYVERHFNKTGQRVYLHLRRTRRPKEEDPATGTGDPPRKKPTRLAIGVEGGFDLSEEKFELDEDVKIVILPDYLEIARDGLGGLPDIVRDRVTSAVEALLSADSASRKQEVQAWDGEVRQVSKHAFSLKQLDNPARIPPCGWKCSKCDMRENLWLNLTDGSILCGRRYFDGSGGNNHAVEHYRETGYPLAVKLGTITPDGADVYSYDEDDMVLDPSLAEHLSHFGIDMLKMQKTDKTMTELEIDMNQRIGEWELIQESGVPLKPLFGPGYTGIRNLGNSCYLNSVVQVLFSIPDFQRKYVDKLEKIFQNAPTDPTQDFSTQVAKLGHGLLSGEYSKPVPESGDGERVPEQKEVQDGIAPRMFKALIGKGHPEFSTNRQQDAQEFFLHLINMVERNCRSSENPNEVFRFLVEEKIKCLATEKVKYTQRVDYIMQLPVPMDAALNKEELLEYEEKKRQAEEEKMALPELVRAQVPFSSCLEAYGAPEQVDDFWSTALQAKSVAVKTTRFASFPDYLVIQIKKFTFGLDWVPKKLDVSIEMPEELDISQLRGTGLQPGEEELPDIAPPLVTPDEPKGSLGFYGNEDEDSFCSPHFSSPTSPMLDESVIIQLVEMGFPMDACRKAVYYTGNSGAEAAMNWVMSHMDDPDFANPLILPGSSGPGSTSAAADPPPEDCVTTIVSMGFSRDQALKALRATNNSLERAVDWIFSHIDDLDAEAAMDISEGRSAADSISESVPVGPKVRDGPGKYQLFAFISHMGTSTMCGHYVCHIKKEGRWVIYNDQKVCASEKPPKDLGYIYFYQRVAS

Substance: Hex-[Cys(tMeBn(DOTA-AET))-Pro-Pro-Thr-Gln-Phe-Cys]-OH (peptide)
- Percentage inhibition (%) at 10 µM [1]: -1%
- Percentage inhibition (%) at 1 µM [2]: 97%
- Percentage inhibition (%) at 10 µM [3]: -1%
- Percentage inhibition (%) at 10 µM [4]: -2%
- Percentage inhibition (%) at 10 µM [5]: -1%
- Percentage inhibition (%) at 10 µM [6]: -2%
- Percentage inhibition (%) at 10 µM [7]: 1%
- Percentage inhibition (%) at 10 µM [8]: 2%
- Percentage inhibition (%) at 10 µM [9]: -2%
- Percentage inhibition (%) at 10 µM [10]: 11%
- Percentage inhibition (%) at 10 µM [11]: -1%
- Percentage inhibition (%) at 10 µM [12]: -7%
- Percentage inhibition (%) at 10 µM [13]: -7%

Substance: Hex-[Cys(tMeBn(DOTA-PP))-Pro-Pro-Thr-Gln-Phe-Cys]-Asp-NH2 (peptide)
- Percentage inhibition (%) at 10 µM [1]: 5%
- Percentage inhibition (%) at 1 µM [2]: 98%
- Percentage inhibition (%) at 10 µM [4]: 46%
- Percentage inhibition (%) at 10 µM [5]: 3%
- Percentage inhibition (%) at 10 µM [6]: 3%
- Percentage inhibition (%) at 10 µM [7]: 5%
- Percentage inhibition (%) at 10 µM [8]: 36%
- Percentage inhibition (%) at 10 µM [9]: 8%
- Percentage inhibition (%) at 10 µM [10]: 5%
- Percentage inhibition (%) at 10 µM [11]: -18%
- Percentage inhibition (%) at 10 µM [12]: 2%
- Percentage inhibition (%) at 10 µM [13]: -3%
- pIC50 Category (Activity) [14]: > 8 pIC50
